Earlier results on 3 substances are cited in publication PMC2744109.

The target in data set [1] is Factor VIII (Homo sapiens) (UniProt P00451).
The target in data set [2] is LRP1 CR7-CR8 (Homo sapiens) (UniProt Q07954). Briefly: ITC. In general terms: In ITC the heat of successive injections is recorded.
In data set [3] the target is LRP1 CR5-CR7 (Homo sapiens) (UniProt Q07954).

“And” between values parts separate entries of the source, which are not always exact repeats. Equal entries are not always repeated.

Sequence of UniProt P00451 (P00451 760-1332): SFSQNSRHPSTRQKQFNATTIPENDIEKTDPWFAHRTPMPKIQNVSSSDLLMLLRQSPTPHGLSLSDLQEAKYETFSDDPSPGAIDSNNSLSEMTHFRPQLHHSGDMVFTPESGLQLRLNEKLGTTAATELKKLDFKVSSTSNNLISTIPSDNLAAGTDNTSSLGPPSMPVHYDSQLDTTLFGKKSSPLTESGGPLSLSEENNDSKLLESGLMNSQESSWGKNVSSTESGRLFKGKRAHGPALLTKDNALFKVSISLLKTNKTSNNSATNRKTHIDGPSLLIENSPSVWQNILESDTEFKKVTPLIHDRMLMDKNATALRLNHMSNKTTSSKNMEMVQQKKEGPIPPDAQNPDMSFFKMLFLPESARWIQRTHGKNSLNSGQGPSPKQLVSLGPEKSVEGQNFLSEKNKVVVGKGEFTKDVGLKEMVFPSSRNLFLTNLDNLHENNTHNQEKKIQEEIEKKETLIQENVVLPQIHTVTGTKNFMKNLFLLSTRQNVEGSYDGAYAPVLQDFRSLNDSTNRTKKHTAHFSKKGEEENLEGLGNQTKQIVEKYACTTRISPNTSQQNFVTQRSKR
Sequence of LRP1 (Q07954 20-4544): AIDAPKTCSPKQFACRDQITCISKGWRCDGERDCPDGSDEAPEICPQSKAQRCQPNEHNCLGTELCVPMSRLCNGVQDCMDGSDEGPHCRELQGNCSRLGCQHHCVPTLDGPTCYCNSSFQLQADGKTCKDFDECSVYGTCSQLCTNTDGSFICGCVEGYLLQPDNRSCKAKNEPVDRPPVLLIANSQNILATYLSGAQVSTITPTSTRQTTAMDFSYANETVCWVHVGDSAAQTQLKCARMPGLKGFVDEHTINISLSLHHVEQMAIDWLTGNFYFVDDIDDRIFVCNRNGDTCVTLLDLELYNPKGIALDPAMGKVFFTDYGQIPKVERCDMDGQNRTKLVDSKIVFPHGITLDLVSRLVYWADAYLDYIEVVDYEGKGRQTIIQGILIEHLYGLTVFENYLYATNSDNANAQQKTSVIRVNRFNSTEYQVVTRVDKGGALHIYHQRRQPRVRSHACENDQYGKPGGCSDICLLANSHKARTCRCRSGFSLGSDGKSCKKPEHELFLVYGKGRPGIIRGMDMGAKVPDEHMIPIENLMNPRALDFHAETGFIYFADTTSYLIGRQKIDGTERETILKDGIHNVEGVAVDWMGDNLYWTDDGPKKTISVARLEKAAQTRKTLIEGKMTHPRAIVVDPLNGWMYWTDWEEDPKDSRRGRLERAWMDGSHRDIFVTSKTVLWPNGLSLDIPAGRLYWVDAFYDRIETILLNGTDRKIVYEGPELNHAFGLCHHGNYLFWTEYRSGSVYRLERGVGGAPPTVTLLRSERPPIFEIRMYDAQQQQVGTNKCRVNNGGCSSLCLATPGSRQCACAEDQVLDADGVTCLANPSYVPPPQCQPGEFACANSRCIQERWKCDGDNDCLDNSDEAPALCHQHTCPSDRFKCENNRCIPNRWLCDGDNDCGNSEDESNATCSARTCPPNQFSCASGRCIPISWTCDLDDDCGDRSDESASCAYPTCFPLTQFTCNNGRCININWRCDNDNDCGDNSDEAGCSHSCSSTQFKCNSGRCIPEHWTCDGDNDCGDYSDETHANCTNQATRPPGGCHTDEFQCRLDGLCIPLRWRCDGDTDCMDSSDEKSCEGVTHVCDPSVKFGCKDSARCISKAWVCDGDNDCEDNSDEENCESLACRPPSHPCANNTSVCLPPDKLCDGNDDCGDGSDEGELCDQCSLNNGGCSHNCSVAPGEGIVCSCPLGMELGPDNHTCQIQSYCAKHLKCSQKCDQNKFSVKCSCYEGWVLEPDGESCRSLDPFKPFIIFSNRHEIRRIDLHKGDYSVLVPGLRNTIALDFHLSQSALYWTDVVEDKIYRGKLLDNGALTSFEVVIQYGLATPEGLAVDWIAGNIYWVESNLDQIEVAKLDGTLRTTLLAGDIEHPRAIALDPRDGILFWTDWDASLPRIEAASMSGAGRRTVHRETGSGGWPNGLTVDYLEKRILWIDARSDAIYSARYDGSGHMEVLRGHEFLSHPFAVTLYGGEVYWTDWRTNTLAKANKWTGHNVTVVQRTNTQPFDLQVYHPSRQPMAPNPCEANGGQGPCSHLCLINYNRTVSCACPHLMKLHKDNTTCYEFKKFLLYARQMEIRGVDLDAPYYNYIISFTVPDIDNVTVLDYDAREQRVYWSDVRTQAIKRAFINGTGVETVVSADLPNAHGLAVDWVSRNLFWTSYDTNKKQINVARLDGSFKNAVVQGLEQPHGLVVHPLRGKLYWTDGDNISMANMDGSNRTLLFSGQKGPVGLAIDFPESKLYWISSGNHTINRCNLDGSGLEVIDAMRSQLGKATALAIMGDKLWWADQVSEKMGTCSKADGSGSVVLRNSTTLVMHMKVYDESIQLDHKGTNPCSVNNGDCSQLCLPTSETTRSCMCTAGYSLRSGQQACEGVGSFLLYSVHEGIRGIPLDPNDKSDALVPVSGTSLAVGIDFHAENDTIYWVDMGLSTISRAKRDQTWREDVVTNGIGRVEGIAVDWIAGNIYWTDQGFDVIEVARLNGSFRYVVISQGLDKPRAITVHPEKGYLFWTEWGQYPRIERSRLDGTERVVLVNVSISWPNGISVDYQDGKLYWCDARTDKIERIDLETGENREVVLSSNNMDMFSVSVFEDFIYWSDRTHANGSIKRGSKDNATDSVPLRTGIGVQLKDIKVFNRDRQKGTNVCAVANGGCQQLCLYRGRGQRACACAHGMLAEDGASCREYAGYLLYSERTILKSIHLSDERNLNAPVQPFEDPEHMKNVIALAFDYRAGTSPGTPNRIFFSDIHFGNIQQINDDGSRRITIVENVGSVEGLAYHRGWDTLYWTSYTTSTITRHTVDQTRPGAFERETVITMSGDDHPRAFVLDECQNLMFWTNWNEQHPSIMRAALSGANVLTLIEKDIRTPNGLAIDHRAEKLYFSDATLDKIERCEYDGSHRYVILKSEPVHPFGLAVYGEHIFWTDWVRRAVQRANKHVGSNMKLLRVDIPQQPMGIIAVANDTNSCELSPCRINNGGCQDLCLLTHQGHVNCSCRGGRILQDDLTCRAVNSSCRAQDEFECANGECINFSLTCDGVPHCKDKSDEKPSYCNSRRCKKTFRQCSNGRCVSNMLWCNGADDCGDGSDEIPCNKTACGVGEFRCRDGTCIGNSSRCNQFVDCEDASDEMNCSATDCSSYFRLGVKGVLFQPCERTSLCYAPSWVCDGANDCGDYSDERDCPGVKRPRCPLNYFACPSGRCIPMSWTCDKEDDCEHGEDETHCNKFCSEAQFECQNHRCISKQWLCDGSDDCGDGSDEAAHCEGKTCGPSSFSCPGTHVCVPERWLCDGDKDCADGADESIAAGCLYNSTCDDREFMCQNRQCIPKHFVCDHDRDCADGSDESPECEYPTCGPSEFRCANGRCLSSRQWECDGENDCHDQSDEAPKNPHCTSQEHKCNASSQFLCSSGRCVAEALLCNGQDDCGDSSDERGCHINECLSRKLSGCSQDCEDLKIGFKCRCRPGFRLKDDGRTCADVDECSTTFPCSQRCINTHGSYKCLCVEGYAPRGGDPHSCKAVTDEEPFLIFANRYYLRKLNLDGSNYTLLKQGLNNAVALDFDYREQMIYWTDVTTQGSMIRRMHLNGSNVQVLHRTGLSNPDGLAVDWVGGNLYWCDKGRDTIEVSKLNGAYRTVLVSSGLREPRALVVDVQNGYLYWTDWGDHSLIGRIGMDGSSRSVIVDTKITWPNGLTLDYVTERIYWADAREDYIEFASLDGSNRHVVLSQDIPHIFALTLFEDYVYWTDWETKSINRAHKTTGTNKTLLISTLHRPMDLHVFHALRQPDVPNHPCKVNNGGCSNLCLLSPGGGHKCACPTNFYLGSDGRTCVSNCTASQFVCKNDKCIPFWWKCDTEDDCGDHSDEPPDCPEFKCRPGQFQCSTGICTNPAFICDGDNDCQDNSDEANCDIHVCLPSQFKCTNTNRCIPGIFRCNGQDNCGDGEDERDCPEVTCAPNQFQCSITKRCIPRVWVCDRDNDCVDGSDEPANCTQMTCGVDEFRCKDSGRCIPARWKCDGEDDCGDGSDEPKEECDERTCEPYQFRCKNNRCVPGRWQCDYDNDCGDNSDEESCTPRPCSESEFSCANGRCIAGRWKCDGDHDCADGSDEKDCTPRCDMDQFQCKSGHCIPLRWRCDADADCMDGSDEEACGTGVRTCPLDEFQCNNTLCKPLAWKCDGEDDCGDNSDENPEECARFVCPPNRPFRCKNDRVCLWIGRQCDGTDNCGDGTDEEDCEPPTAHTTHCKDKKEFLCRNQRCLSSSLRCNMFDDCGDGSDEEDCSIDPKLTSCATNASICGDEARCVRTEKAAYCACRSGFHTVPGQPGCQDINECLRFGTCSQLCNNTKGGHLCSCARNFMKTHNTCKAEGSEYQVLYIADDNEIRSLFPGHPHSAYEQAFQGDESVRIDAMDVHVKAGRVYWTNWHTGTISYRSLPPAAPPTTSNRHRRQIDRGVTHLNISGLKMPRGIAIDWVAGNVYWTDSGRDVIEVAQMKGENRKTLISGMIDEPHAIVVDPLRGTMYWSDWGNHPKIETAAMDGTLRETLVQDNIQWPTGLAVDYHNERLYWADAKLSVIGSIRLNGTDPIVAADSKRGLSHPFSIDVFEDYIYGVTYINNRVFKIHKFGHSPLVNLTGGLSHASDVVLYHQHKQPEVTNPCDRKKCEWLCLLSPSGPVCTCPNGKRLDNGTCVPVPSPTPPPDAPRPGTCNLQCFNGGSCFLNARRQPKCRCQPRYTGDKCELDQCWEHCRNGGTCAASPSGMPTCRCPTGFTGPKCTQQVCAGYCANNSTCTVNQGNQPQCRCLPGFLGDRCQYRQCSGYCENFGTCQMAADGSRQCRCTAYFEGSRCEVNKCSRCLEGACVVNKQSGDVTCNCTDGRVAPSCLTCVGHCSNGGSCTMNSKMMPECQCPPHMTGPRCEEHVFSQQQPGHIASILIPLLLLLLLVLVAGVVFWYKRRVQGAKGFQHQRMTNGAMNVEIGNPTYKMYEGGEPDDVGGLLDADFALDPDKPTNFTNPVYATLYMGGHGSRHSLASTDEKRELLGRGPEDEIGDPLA

Consider LRP1 (from UniProt Q07954), for which the Kd in data set [1] was 116 nM and 60 nM. RAP (from UniProt P30533): the dissociation constant (Kd) was 1000 nM in data set [2] and 1.6 nM in data set [3]. As for RAP D3 (from UniProt P30533), the Kd in data set [2] is 1000 nM.

For orientation: Kd means a measure of binding affinity in units of concentration.
